Laboratory results published in publication doi:10.1101/2024.10.21.619389 (bioRxiv, 2024).

Biological target: the molecule itself
Test: negative-stain transmission electron microscopy

B1: light-dependent protochlorophyllide oxidoreductase (LPOR) isoform AtPORB (enzyme, Arabidopsis thaliana)
chain: QTAATSSPTVTKSVDGKKTLRKGNVVVTGASSGLGLATAKALAETGKWNVIMACRDFLKAERAAKSVGMPKDSYTVMHLDLASLDSVRQFVDNFRRTETPLDVLVCNAAVYFPTAKEPTYSAEGFELSVATNHLGHFLLARLLLDDLKKSDYPSKRLIIVGSITGNTNTLAGNVPPKANLGDLRGLAGGLNGLNSSAMIDGGDFDGAKAYKDSKVCNMLTMQEFHRRFHEETGVTFASLYPGCIASTGLFREHIPLFRALFPPFQKYITKGYVSETESGKRLAQVVSDPSLTKSGVYWSWNNASASFENQLSEEASDVEKARKVWEISEKLVGLA
  binding result: binds
